Test results reported in the supplement of paper PMC12458215.
± gives the uncertainty stated by the source.

Test system: HEK293T
Assay: plasma membrane surface immunostaining intensity (anti-HA, deep receptor scanning) (arbitrary fluorescence units); higher = higher plasma membrane expression

Row | Sequence | plasma membrane surface immunostaining intensity (GPCR class: A) | other results
1 | MASFSAETNSTDLLSQPWNEPPVILSMVILSLTFLLGLPGNGLVLWVAGLKMQRTVNTIWFLHLTLADLLCCLSLPFSLAHLALQGQWPYGRFLCKLIPSIIVLNMFASVFLLTAISLDRCLVVFKPIWCQNHRNVGMACSICGCIWVVAFVMCIPVFVYREIFTTDNHNRCGYKFGLSSSLDYPDFYGDPLENRSLENIVQPPGEMNDRLDPSSFQTNDHPWTVPTVFQPQTFQRPSADSLPRGSARLTSQNLYSNVFKPADVVSPKIPSGFPIEDHETSPLDNSDAFLSTHLKLFPSASSNSFYESELPQGFQDYYNLGQFTDDDQVPTPLVAITITRLVVGFLLPSVIMIACYSFIVFRMQRGRFAKSQSKTFRVAVVVVAVFLVCWTPYHIFGVLSLLTDPETPLGKTLMSWDHVCIALASANSCFNPFLYALLGKDFRKKARQSIQGILEAAFSEELTRSTHCPSNNVISERNSTTV [C3AR1] | 327 ± 41 | –
2 | MASLSQLSGHLNYTCGAENSTGASQARPHAYYALSYCALILAIVFGNGLVCMAVLKERALQTTTNYLVVSLAVADLLVATLVMPWVVYLEVTGGVWNFSRICCDVFVTLDVMMCTASILNLCAISIDRYTAVVMPVHYQHGTGQSSCRRVALMITAVWVLAFAVSCPLLFGFNTTGDPTVCSISNPDFVIYSSVVSFYLPFGVTVLVYARIYVVLKQRRRKRILTRQNSQCNSVRPGFPQQTLSPDPAHLELKRYYSICQDTALGGPGFQERGGELKREEKTRNSLSPTIAPKLSLEVRKLSNGRLSTSLKLGPLQPRGVPLREKKATQMVAIVLGAFIVCWLPFFLTHVLNTHCQTCHVSPELYSATTWLGYVNSALNPVIYTTFNIEFRKAFLKILSC [DRD3] | 3810 ± 240 | –
3 | MASPALAAALAVAAAAGPNASGAGERGSGGVANASGASWGPPRGQYSAGAVAGLAAVVGFLIVFTVVGNVLVVIAVLTSRALRAPQNLFLVSLASADILVATLVMPFSLANELMAYWYFGQVWCGVYLALDVLFCTSSIVHLCAISLDRYWSVTQAVEYNLKRTPRRVKATIVAVWLISAVISFPPLVSLYRQPDGAAYPQCGLNDETWYILSSCIGSFFAPCLIMGLVYARIYRVAKLRTRTLSEKRAPVGPDGASPTTENGLGAAAGAGENGHCAPPPADVEPDESSAAAERRRRRGALRRGGRRRAGAEGGAGGADGQGAGPGAAESGALTASRSPGPGGRLSRASSRSVEFFLSRRRRARSSVCRRKVAQAREKRFTFVLAVVMGVFVLCWFPFFFSYSLYGICREACQVPGPLFKFFFWIGYCNSSLNPVIYTVFNQDFRRSFKHILFRRRRRGFRQ [ADRA2C] | 1030 ± 270 | –
4 | MASPRSSGQPGPPPPPPPPPARLLLLLLLPLLLPLAPGAWGWARGAPRPPPSSPPLSIMGLMPLTKEVAKGSIGRGVLPAVELAIEQIRNESLLRPYFLDLRLYDTECDNAKGLKAFYDAIKYGPNHLMVFGGVCPSVTSIIAESLQGWNLVQLSFAATTPVLADKKKYPYFFRTVPSDNAVNPAILKLLKHYQWKRVGTLTQDVQRFSEVRNDLTGVLYGEDIEISDTESFSNDPCTSVKKLKGNDVRIILGQFDQNMAAKVFCCAYEENMYGSKYQWIIPGWYEPSWWEQVHTEANSSRCLRKNLLAAMEGYIGVDFEPLSSKQIKTISGKTPQQYEREYNNKRSGVGPSKFHGYAYDGIWVIAKTLQRAMETLHASSRHQRIQDFNYTDHTLGRIILNAMNETNFFGVTGQVVFRNGERMGTIKFTQFQDSREVKVGEYNAVADTLEIINDTIRFQGSEPPKDKTIILEQLRKISLPLYSILSALTILGMIMASAFLFFNIKNRNQKLIKMSSPYMNNLIILGGMLSYASIFLFGLDGSFVSEKTFETLCTVRTWILTVGYTTAFGAMFAKTWRVHAIFKNVKMKKKIIKDQKLLVIVGGMLLIDLCILICWQAVDPLRRTVEKYSMEPDPAGRDISIRPLLEHCENTHMTIWLGIVYAYKGLLMLFGCFLAWETRNVSIPALNDSKYIGMSVYNVGIMCIIGAAVSFLTRDQPNVQFCIVALVIIFCSTITLCLVFVPKLITLRTNPDAATQNRRFQFTQNQKKEDSKTSTSVTSVNQASTSRLEGLQSENHRLRMKITELDKDLEEVTMQLQDTPEKTTYIKQNHYQELNDILNLGNFTESTDGGKAILKNHLDQNPQLQWNTTEPSRTCKDPIEDINSPEHIQRRLSLQLPILHHAYLPSIGGVDASCVSPCVSPTASPRHRHVPPSFRVMVSGL [GABBR2] | – | plasma membrane surface immunostaining intensity (GPCR class: C): 6210 ± 48
5 | MASPSLPGSDCSQIIDHSHVPEFEVATWIKITLILVYLIIFVMGLLGNSATIRVTQVLQKKGYLQKEVTDHMVSLACSDILVFLIGMPMEFYSIIWNPLTTSSYTLSCKLHTFLFEACSYATLLHVLTLSFERYIAICHPFRYKAVSGPCQVKLLIGFVWVTSALVALPLLFAMGTEYPLVNVPSHRGLTCNRSSTRHHEQPETSNMSICTNLSSRWTVFQSSIFGAFVVYLVVLLSVAFMCWNMMQVLMKSQKGSLAGGTRPPQLRKSESEESRTARRQTIIFLRLIVVTLAVCWMPNQIRRIMAAAKPKHDWTRSYFRAYMILLPFSETFFYLSSVINPLLYTVSSQQFRRVFVQVLCCRLSLQHANHEKRLRVHAHSTTDSARFVQRPLLFASRRQSSARRTEKIFLSTFQSEAEPQSKSQSLSLESLEPNSGAKPANSAAENGFQEHEV [GPR39] | 5870 ± 200 | –
6 | MASPSNDSTAPVSEFLLICFPNFQSWQHWLSLPLSLLFLLAMGANTTLLITIQLEASLHQPLYYLLSLLSLLDIVLCLTVIPKVLAIFWFDLRSISFPACFLQMFIMNSFLTMESCTFMVMAYDRYVAICHPLRYPSIITDQFVARAVVFVIARNAFVSLPVPMLSARLRYCAGNIIKNCICSNLSVSKLSCDDITFNQLYQFVAGWTLLGSDLILIVISYSFILKVVLRIKAEGAVAKALSTCGSHFILILFFSTVLLVLVITNLARKRIPPDVPILLNILHHLIPPALNPIVYGVRTKEIKQGIQNLLKRL [OR56A4] | – | plasma membrane surface immunostaining intensity (GPCR class: A (Olfactory)): 419 ± 210
7 | MASSTTRGPRVSDLFSGLPPAVTTPANQSAEASAGNGSVAGADAPAVTPFQSLQLVHQLKGLIVLLYSVVVVVGLVGNCLLVLVIARVRRLHNVTNFLIGNLALSDVLMCTACVPLTLAYAFEPRGWVFGGGLCHLVFFLQPVTVYVSVFTLTTIAVDRYVVLVHPLRRRISLRLSAYAVLAIWALSAVLALPAAVHTYHVELKPHDVRLCEEFWGSQERQRQLYAWGLLLVTYLLPLLVILLSYVRVSVKLRNRVVPGCVTQSQADWDRARRRRTFCLLVVIVVVFAVCWLPLHVFNLLRDLDPHAIDPYAFGLVQLLCHWLAMSSACYNPFIYAWLHDSFREELRKLLVAWPRKIAPHGQNMTVSVVI [PRLHR] | 5220 ± 340 | –
8 | MASSWPPLELQSSNQSQLFPQNATACDNAPEAWDLLHRVLPTFIISICFFGLLGNLFVLLVFLLPRRQLNVAEIYLANLAASDLVFVLGLPFWAENIWNQFNWPFGALLCRVINGVIKANLFISIFLVVAISQDRYRVLVHPMASRRQQRRRQARVTCVLIWVVGGLLSIPTFLLRSIQAVPDLNITACILLLPHEAWHFARIVELNILGFLLPLAAIVFFNYHILASLRTREEVSRTRCGGRKDSKTTALILTLVVAFLVCWAPYHFFAFLEFLFQVQAVRGCFWEDFIDLGLQLANFFAFTNSSLNPVIYVFVGRLFRTKVWELYKQCTPKSLAPISSSHRKEIFQLFWRN [BDKRB1] | 976 ± 180 | –
9 | MASTSNVTELIFTGLFQDPAVQSVCFVVFLPVYLATVVGNGLIVLTVSISKSLDSPMYFFLSCLSLVEISYSSTIAPKFIIDLLAKIKTISLEGCLTQIFFFHFFGVAEILLIVVMAYDCYVAICKPLHYMNIISRQLCHLLVAGSWLGGFCHSIIQILVIIQLPFCGPNVIDHYFCDLQPLFKLACTDTFMEGVIVLANSGLFSVFSFLILVSSYIVILVNLRNHSAEGRHKALSTCASHITVVILFFGPAIFLYMRPSSTFTEDKLVAVFYTVITPMLNPIIYTLRNAEVKIAIRRLWSKKENPGRE [OR4B1] | – | plasma membrane surface immunostaining intensity (GPCR class: A (Olfactory)): 131 ± 38
10 | MATELDKIFLILAIAEFIISMLGNVFIGLVNCSEGIKNQKVFSADFILTCLAISTIGQLLVILFDSFLVGLASHLYTTYRLGKTVIMLWHMTNHLTTWLATCLSIFYFFKIAHFPHSLFLWLRWRMNGMIVMLLILSLFLLIFDSLVLEIFIDISLNIIDKSNLTLYLDESKTLYDKLSILKTLLSLTSFIPFSLFLTSLLFLFLSLVRHTRNLKLSSLGSRDSSTEAHRRAMKMVMSFLFLFIVHFFSLQVANWIFFMLWNNKCIKFVMLALNAFPSCHSFILILGNSKLQQTAVRLLWHLRNYTKTPNPLPL [TAS2R42] | – | plasma membrane surface immunostaining intensity (GPCR class: Taste): 114 ± 7.7
11 | MATLPAAETWIDGGGGVGADAVNLTASLAAGAATGAVETGWLQLLDQAGNLSSSPSALGLPVASPAPSQPWANLTNQFVQPSWRIALWSLAYGVVVAVAVLGNLIVIWIILAHKRMRTVTNYFLVNLAFSDASMAAFNTLVNFIYALHSEWYFGANYCRFQNFFPITAVFASIYSMTAIAVDRYMAIIDPLKPRLSATATKIVIGSIWILAFLLAFPQCLYSKTKVMPGRTLCFVQWPEGPKQHFTYHIIVIILVYCFPLLIMGITYTIVGITLWGGEIPGDTCDKYHEQLKAKRKVVKMMIIVVMTFAICWLPYHIYFILTAIYQQLNRWKYIQQVYLASFWLAMSSTMYNPIIYCCLNKRFRAGFKRAFRWCPFIKVSSYDELELKTTRFHPNRQSSMYTVTRMESMTVVFDPNDADTTRSSRKKRATPRDPSFNGCSRRNSKSASATSSFISSPYTSVDEYS [TACR3] | 4780 ± 620 | –
12 | MAVAPLRGALLLWQLLAAGGAALEIGRFDPERGRGAAPCQAVEIPMCRGIGYNLTRMPNLLGHTSQGEAAAELAEFAPLVQYGCHSHLRFFLCSLYAPMCTDQVSTPIPACRPMCEQARLRCAPIMEQFNFGWPDSLDCARLPTRNDPHALCMEAPENATAGPAEPHKGLGMLPVAPRPARPPGDLGPGAGGSGTCENPEKFQYVEKSRSCAPRCGPGVEVFWSRRDKDFALVWMAVWSALCFFSTAFTVLTFLLEPHRFQYPERPIIFLSMCYNVYSLAFLIRAVAGAQSVACDQEAGALYVIQEGLENTGCTLVFLLLYYFGMASSLWWVVLTLTWFLAAGKKWGHEAIEAHGSYFHMAAWGLPALKTIVILTLRKVAGDELTGLCYVASTDAAALTGFVLVPLSGYLVLGSSFLLTGFVALFHIRKIMKTGGTNTEKLEKLMVKIGVFSILYTVPATCVIVCYVYERLNMDFWRLRATEQPCAAAAGPGGRRDCSLPGGSVPTVAVFMLKIFMSLVVGITSGVWVWSSKTFQTWQSLCYRKIAAGRARAKACRAPGSYGRGTHCHYKAPTVVLHMTKTDPSLENPTHL [FZD9] | – | plasma membrane surface immunostaining intensity (GPCR class: F): 1560 ± 410
13 | MAVGRNNTIVTKFILLGLSDHPQMKIFLFMLFLGLYLLTLAWNLSLIALIKMDSHLHMPMYFFLSNLSFLDICYVSSTAPKMLSDIITEQKTISFVGCATQYFVFCGMGLTECFLLAAMAYDRYAAICNPLLYTVLISHTLCLKMVVGAYVGGFLSSFIETYSVYQHDFCGPYMINHFFCDLPPVLALSCSDTFTSEVVTFIVSVVVGIVSVLVVLISYGYIVAAVVKISSATGRTKAFSTCASHLTAVTLFYGSGFFMYMRPSSSYSLNRDKVVSIFYALVIPVVNPIIYSFRNKEIKNAMRKAMERDPGISHGGPFIFMTLG [OR5A2] | – | plasma membrane surface immunostaining intensity (GPCR class: A (Olfactory)): 267 ± 110
14 | MAVQGSQRRLLGSLNSTPTAIPQLGLAANQTGARCLEVSISDGLFLSLGLVSLVENALVVATIAKNRNLHSPMYCFICCLALSDLLVSGSNVLETAVILLLEAGALVARAAVLQQLDNVIDVITCSSMLSSLCFLGAIAVDRYISIFYALRYHSIVTLPRARRAVAAIWVASVVFSTLFIAYYDHVAVLLCLVVFFLAMLVLMAVLYVHMLARACQHAQGIARLHKRQRPVHQGFGLKGAVTLTILLGIFFLCWGPFFLHLTLIVLCPEHPTCGCIFKNFNLFLALIICNAIIDPLIYAFHSQELRRTLKEVLTCSW [MC1R] | 299 ± 43 | –
